Source: PMC9861716

Molecular target: His-Fc-G67 polypeptide
Experiment: co-sedimentation; Herceptin on Herceptin-modified liposomes (Her-Lipo), evaluated semi-quantitatively by SDS-PAGE and silver staining; no data shown

Question: Which amount of Herceptin on Her-Lipo per 100 µg lipid (µg of Herceptin per 100 µg lipid) does the source give for Herceptin (trastuzumab) (antibody) here?
Answer: 0.4
